This is an account of results in article PMC8383118.

In general, Kd refers to the constant that tells how readily two partners part at equilibrium. Lower therefore signals a tighter complex. As a reminder, the stoichiometry N is a count of units in the complex or per binding partner.

The target in experiment [1] is fluorescently labeled S. mutans XIP (dansyl-GLDWWSL) (Streptococcus mutans). Description: other fluorescence titration; 0.2 μM dansyl-XIP with increasing ComR, 1 h, room temperature, dark; 20 mM HEPES pH 7.5, 100 mM NaCl, 1 mM β-ME; dansyl emission intensity.
The target of experiment [2] is ComR S. mutans DNA-binding domain (DBD) construct (Streptococcus mutans). In words: ITC; 300 μM Prx (or PrxD32A) injected into 20 μM ComR S. mutans or DBD, 25 °C, gel filtration buffer (20 mM Tris-HCl pH 7.5, 100 mM NaCl, 1 mM β-ME); one site model.
For experiment [3], the target named is ComR S. mutans, full length (Streptococcus mutans). The experiment is described as above.
Experiment [4] shares this target.
Experiment [5] addresses ComR:dansyl-XIP complex (Streptococcus mutans). In words: fluorescence polarisation; steady-state fluorescence anisotropy of 0.2 μM dansyl-XIP with 0.5 μM ComR and increasing Prx, 1 h, room temperature; 20 mM HEPES pH 7.5, 100 mM NaCl, 1 mM β-ME. A general note: Polarisation of emitted light reports the rotation of a fluorescent probe.

ComR S. mutans, full length (receptor) gave a Kd in experiment [1] of 320 nM. That is a sub-micromolar value.

B1: paratox (Prx) from S. pyogenes MGAS315 (natural protein)
chain: MLTYDEFKQAIDRGYITADTVMIVRKNGQIFDYVLPNEKIKNGEIVTDEKVEEVLVELSR
In experiment [2], B1 returned a Kd of 50 nM, a dH of -20.8 kcal/mol and a stoichiometry N of 1. Further, in experiment [3], the Kd was 390 nM, the dH was -11.8 kcal/mol and the stoichiometry N amounted to 1. Further, in experiment [4], the EMSA: Prx needed for complete inhibition (no DNA band shift) of 4 μM ComR with 8 μM XIP and FAM-labeled comS promoter probe; Prx added with or before XIP (apo-ComR) was 6 µM; the EMSA: Prx needed for complete inhibition (no DNA band shift) when added after the ComR:XIP:DNA complex was allowed to form (activated ComR) was found to be 2 µM. The molecule also gave a Kd in experiment [5] of 700 nM.
